Source: publication PMC12713088, “Arabidopsis TRB Proteins Form Two Closely Related Complexes to Mediate H3K4me3 Demethylation and Transcriptional Repression” (Advanced Science, 2025)

Experiments:
NAC050-N = target: T1, NAC050-N (Arabidopsis thaliana, UniProt Q9SQX9 1-184); assay: EMSA; EMSA: 10 mM Tris-HCl pH 7.5, 50 mM NaCl, 1 mM EDTA, 5% glycerol, 1 mM DTT, 25 C, 30 min, 20 ng DNA + 1 ug protein; ITC: 20 mM Tris-HCl pH 7.5, 150 mM NaCl, 25 C, 5 uM protein, 100 uM DNA; settings: protein: recombinant; tags: MBP; chain copies: 2; label: Cy5 at 5' of strand 1; blunt
T1 sequence: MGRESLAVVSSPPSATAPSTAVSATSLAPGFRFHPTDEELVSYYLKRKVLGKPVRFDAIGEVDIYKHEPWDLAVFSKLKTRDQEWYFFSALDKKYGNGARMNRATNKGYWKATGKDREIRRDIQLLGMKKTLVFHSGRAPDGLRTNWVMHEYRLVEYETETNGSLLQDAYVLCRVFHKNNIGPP

TRB1;NAC050-N = target: T2, TRB1;NAC050-N (Arabidopsis thaliana;Arabidopsis …, UniProt Q8VWK4;Q9SQX9 1-300;1-184, |); assay: EMSA; TRB1 added to NAC050-N; larger complex; EMSA: 10 mM Tris-HCl pH 7.5, 50 mM NaCl, 1 mM EDTA, 5% glycerol, 1 mM DTT, 25 C, 30 min, 20 ng DNA + 1 ug protein; ITC: 20 mM Tris-HCl pH 7.5, 150 mM NaCl, 25 C, 5 uM protein, 100 uM DNA; settings: protein: recombinant;recombinant; tags: His;MBP; label: Cy5 at 5' of strand 1; blunt
T2 sequence 1: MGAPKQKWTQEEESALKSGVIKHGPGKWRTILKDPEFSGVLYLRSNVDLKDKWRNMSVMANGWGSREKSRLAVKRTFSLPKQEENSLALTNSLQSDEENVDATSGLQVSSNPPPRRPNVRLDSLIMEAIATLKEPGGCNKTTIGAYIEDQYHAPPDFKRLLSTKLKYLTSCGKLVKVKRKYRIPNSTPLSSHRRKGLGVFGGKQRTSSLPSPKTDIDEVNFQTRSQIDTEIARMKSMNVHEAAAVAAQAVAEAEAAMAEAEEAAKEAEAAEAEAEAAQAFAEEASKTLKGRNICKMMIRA
T2 sequence 2: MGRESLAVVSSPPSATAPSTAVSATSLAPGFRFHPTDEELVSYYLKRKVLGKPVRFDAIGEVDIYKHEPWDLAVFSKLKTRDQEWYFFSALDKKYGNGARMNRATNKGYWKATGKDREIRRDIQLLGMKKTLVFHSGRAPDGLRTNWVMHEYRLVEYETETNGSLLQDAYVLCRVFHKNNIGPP

B1: Probe 2 (P2) (dsDNA)
DNA 1: GACGCTTGAGCCTCAAGAAAT
DNA 2: ATTTCTTGAGGCTCAAGCGTC
binding result (NAC050-N): binds
binding result (TRB1;NAC050-N): binds
